Assay results published in publication PMC8558294, “Defects in the STIM1 SOARα2 domain affect multiple steps in the CRAC channel activation cascade” (Cellular and Molecular Life Sciences: CMLS, 2021).

Target: Orai1 V102A (human, UniProt Q96D31-1 1-301, V102A)
Test: cell-based or functional assay

Sequence of Orai1 V102A (Q96D31 whole entry V102A): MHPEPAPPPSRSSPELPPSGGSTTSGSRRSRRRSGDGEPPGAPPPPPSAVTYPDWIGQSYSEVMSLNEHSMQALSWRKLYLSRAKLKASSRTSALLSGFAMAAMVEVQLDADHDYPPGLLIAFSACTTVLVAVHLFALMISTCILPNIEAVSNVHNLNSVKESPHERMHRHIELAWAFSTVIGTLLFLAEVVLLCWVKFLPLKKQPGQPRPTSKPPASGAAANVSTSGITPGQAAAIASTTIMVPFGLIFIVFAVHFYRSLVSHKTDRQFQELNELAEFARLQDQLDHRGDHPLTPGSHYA

Vrev [mV] of Orai1 V102A currents, whole-cell patch clamp in HEK293 cells: 31.6 mV
B1: STIM1 Δα2 (STIM1 Δ393-398), CFP/YFP-labeled (natural protein, human, UniProt Q13586-1 23-685, looked up)
chain: LSHSHSEKATGTSSGANSEESTAAEFCRIDKPLCHSEDEKLSFEAVRNIHKLMDDDANGDVDVEESDEFLREDLNYHDPTVKHSTFHGEDKLISVEDLWKAWKSSEVYNWTVDEVVQWLITYVELPQYEETFRKLQLSGHAMPRLAVTNTTMTGTVLKMTDRSHRQKLQLKALDTVLFGPPLLTRHNHLKDFMLVVSIVIGVGGCWFAYIQNRYSKEHMKKMMKDLEGLHRAEQSLHDLQERLHKAQEEHRTVEVEKVHLEKKLRDEINLAKQEAQRLKELREGTENERSRQKYAEEELEQVREALRKAEKELESHSSWYAPEALQKWLQLTHEVEVQYYNIKKQNAEKQLLVAKEGAEKIKKKRNTLFGSSSLDDVDHKILTAKQALSEVTAALRERLHRWQQIEILCGFQIVNNPGIHSLVAALNIDPSWMGSTRPNPAHFIMTDDVDDMDEEIVSPLSMQSPSLQSSVRQRLTEPQHGLGSQRDLTHSDSESSLHMSDRQRVAPKPPQMSRAADEALNAMTSNGSHRLIEGVHPGSLVEKLPDSPALAKKALLALNHGLDKAHSLMELSPSAPPGGSPHLDSSRSHSPSSPDPDTPSPVGDSRALQASRNTRIPHLAGKKAVAEEDNGSIGEETDSSPGRKKFPLKIFKKPLKK
